The values below come from article PMC10253715.

The target of this assay is CD9-EGFP-FRB (UniProt P21926).

mCherry-FKBP12-luciferase: the luciferase activity in EVs released from co-transfected HEK-293 cells, rapamycin dose series for 24 h (rapamycin is the bridging compound) stood at 3 fold.
